Consider one substance from publication PMC5561218.

For experiment [1], the target named is fibrinogen related-protein 30 (FBN30), insect cell-expressed recombinant (Anopheles gambiae). As to the kind of experiment: non-reducing and reducing SDS-PAGE with western blot; 12% SDS-PAGE without or with beta-ME of culture medium of transfected Hi5 cells; FBN30 detected with anti-FBN30 antibody; covalent (disulfide) dimer.
Experiment [2] shares this target. As to the kind of experiment: SEC; concentrated Hi5 medium on a Superdex 200 10/300 GL column, PBS pH 7.4, 0.4 mL/min, calibrated with protein standards; FBN30 in the fractions quantified by ELISA with anti-FBN30; octamer of four disulfide-linked homodimers. On the technique in general: Size exclusion chromatography separates by hydrodynamic size, large species first.

For “fibrinogen related-protein 30 (FBN30), insect cell-expressed recombinant (natural protein)”, the values for the stoichiometry N in experiment [1] and in experiment [2] were 2 and 8, respectively.

The stoichiometry N is the number of molecules, sites or subunits per partner or assembly.
